Source: publication PMC6377630, “NapM enhances the survival of Mycobacterium tuberculosis under stress and in macrophages” (Communications Biology, 2019)

T1: DnaA (M. tuberculosis H37Ra, UniProt P9WNW3 1-507)
T1 construct: also called DnaA protein
T1 sequence: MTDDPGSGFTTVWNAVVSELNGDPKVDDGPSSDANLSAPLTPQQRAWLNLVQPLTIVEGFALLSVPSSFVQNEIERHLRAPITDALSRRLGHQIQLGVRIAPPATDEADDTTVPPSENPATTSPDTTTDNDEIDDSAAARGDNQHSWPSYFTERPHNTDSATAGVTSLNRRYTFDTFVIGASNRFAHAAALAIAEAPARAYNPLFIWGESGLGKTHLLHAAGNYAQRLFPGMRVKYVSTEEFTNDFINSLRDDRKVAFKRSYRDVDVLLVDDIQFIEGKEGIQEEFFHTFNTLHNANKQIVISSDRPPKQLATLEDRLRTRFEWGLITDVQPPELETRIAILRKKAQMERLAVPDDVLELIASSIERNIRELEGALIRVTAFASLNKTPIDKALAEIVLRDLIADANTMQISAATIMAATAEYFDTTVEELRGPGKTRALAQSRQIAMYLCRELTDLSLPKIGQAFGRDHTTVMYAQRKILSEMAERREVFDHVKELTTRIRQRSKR

B1: NapM (Rv0047c), nucleoid-associated protein (natural protein)
chain: MLELAILGLLIESPMHGYELRKRLTGLLGAFRAFSYGSLYPALRRMQADGLIAENAAPAGTPVRRARRVYQLTDKGRRRFGELVADTGPHNYTDDGFGVHLAFFNRTPAEARMRILEGRRRQVEERREGLREAVARASSSFDRYTRQLHQLGLESSEREVKWLNELIAAERAAPNPAEQT

Assays:
[1] = target: DnaA (M. tuberculosis H37Ra) (UniProt P9WNW3); experiment: SPR; DnaA immobilised on CM5 chip (5.7 μM), NapM proteins passed over; Biacore 3000; 10 mM HEPES, 150 mM NaCl, 3 mM EDTA, 0.01% surfactant P20, pH 7.4; 25 °C
[2] = target: T1, DnaA; experiment: as above; settings: both partners purified

| Molecule | Kd [1] [nM] | Kd [2] [nM] |
| --- | --- | --- |
| NapM C-terminal domain (CTD) (domain or fragment) | 500 | – |
| B1 | – | 380 |
